# Source: US10428308B2, “Mesoderm and definitive endoderm cell populations” (Icahn School of Medicine at Mount Sinai, priority 2005, dated 2019)
# Assays:
# [1] = tested on: GFP^+ hCD4^med cells from CD4-HNF/GFP-T ES cells; test: Reaggregation of sorted GFP^+ hCD4^med cells in serum free media with DKK1 and/or activin; type: cell-based, mouse
# Procedure: FIGS. 35A and 35B depict, the effects of DKK1 and activin on EB differentiation. EBs differentiated and sorted as in FIG. 32 for GFP^+ hCD4^med were allowed to reaggregate in serum replacement containing media alone or with the addition of human DKK1 100 ng/ml, activin 100 ng/ml, or both factors together. […] FIG. 35B depicts endodermal gene expression by RT PCR. The sorted populations were treated as indicated above for 2 days, then plated on matrigel in serum free media without factors added. Gene expression was analyzed an additional 5 days after plating.
# Nodal, a key molecule involved in mesoderm/endoderm induction in vivo, signals through the same receptors as activin. It is also known that Nodal as well as inhibitors for Wnt signaling are expressed preferentially in or around the anterior primitive streak. Considering that the endoderm forms from the anterior primitive streak, it is possible that nodal/activin signaling in combination with inhibition of Wnt signals induces endoderm formation. To test this hypothesis, CD4-HNF/GFP-T ES cells were differentiated for 3.25 days in serum and GFP^+ hCD4^med cells were sorted and reaggregated in serum free media with no factor, DKK1 (Wnt inhibitor), activin, or activin and DKK1. The effect of these culture conditions on hCD4-HNF3β and GFP-Bry levels were analyzed by flow cytometry (FIG. 35A). With serum free media alone, hCD4 expression was lost after 1 day reaggregation. […] To further test this idea, sorted cells reaggregated for two days in the culture conditions above were washed with serum free media without factors and plated onto martrigel in serum free media. After 5 days, the cultures were harvested and gene expression determined by RT PCR. […] These culture conditions have the potential to allow the large scale production of endodermal derived tissues such as the pancreas and liver.
# [2] = tested on: GFP-Bry ES cells / EBs; test: Activin induction of brachyury (GFP) in serum-free EB cultures, FACS; type: cell-based, mouse
# Procedure: A) FACS profile showing GFP expression in day 6 EBs differentiated in the presence of 100 ng/ml of activin. B) Kinetics of GFP induction in cultures containing 100 ng/ml of activin. Open circles are EB differentiated in the presence of activin, closed squares are EBs differentiated in absence of activin. C) RT-PCR expression analysis of indicated genes in day 6 EBs grown in the presence (+activin) or absence (−activin) of activin. Numbers indicate day of EB differentiation.
# FIGS. 23A and 23B show the effects of different concentrations of activin on the developmental potential of EBs. A) GFP expression in day 7 EBs induced with different concentrations of activin. B) RT-PCR expression analysis of day 7 EBs induced with different concentrations of activin.
# To further enrich for cells with endodermal potential, the effects of growth factors known to induce this cell population in other model systems were tested. Studies in Xenopus have shown that activin will induce both mesoderm and endoderm from ectoderm in culture. Of particular interest was the observation that activin behaved as a morphogen in this model in that it induced different cell types at different concentrations used. […] ES cells were differentiated for 2 days in Stem Pro 34 medium without serum. At this stage, the developing EBs were harvested and recultured in IMDM supplemented with serum replacement (serum free) and activin at a concentration of 100 ng/ml. EBs were harvested at different days and assayed for GFP^+ expression and expression of genes indicative of ectoderm, mesoderm and endoderm development. […] While the kinetics of GFP induction was delayed compared to EBs differentiated in serum, this concentration of activin did induce substantial numbers of brachyury positive cells (60%) by day 6 of differentiation. […] Induction of pdx-1 is of interest, as this gene is essential for pancreas development. Genes associated with hematopoietic development, such as GATA-1 and those indicative of neuroectoderm differentiation such as PAX6 were not induced by activin.
# As little as 1 ng/ml of activin induced GFP^+ expression (10% of the total population) by 7 days of culture (FIG. 23A). The frequency of GFP^+ cells increased to 40% in cultures stimulated with 3 ng/ml and reached plateau levels of greater than 50% at 30 ng/ml. […] HNF3β, Sox17, Hex-1 were all induced in cultures stimulated with 10, 30, or 100 ng/ml of activin. Pdx-1 expression required the highest amount of activin and was induced best in EBs stimulated with 100 ng/ml. Neither GATA1 nor c-fms was expressed at any concentration of activin.
molecule,measurement,setting,value
"activin: growth factor purchased from R&D systems; induces mesoderm and endoderm (protein, UniProt P08476 311-426, looked up) Inhibin beta A chain: GLECDGKVNICCKKQFFVSFKDIGWNDWIIAPSGYHANYCEGECPSHIAGTSGSSLSFHSTVINHYRMRGHSPFANLKSCCVPTKLRPMSMLYYDDGQNIIKKDIQNMIVEECGCS","endoderm gene expression by RT PCR (pancreas, liver, intestine genes)","[1]; 2 days treatment, then 5 days on matrigel without factors","Very low levels of just two of the genes, Pdxl and ALB"
same,hCD4 (HNF3β) level by flow cytometry,"[1]; after 1 day reaggregation, DKK1 100 ng/ml, activin 100 ng/ml",retention of HNF3β levels similar to newly sorted cells
same,GFP^+ expression (% of the total population),"[2]; activin 1 ng/ml, 7 days of culture",10%
same,frequency of GFP^+ cells,"[2]; activin 3 ng/ml, day 7",40%
same,"frequency of GFP^+ cells, plateau level","[2]; activin 30 ng/ml, day 7",greater than 50%
same,brachyury positive cells (GFP),"[2]; activin 100 ng/ml, serum free, day 6 of differentiation",60%
